Measured values as given in patent US7851436.

Biological target: integrins αVβ3 and αVβ5
Assay: inhibition of Ch-1 cell adhesion to coated PIIBNP by synthetic peptide (FIG. 3C)

IC50 [µM] | Binder
10 | GRGDNP [synthetic GRGDNP peptide]
60 | GRADNP [synthetic GRADNP peptide]
